The source of these data is article doi:10.1101/2023.08.08.552518.

The target in this data set is human alpha-thrombin (human, UniProt P00734;P00734 328-363;364-622). The data set is described as follows: BLI.

For orientation: Kd means the free concentration of one partner at which half of the binding sites on the other are occupied at equilibrium, for simple one-to-one binding. Low values mean higher affinity, high ones lower affinity. TCACTGTGGTTGGTGTGGTTGGTTTTTTTTTTTTACAGTG (structured_DNA) [ISD-Bt] showed a Kd of 246 nM.
For the molecule GGTTGGTGTGGTTGG (structured_DNA) [TBA-Bt], the equilibrium dissociation constant (Kd) worked out at 114 nM.
